Assay [1] has as its target PD-1 on PATHHUNTER PD-1 Jurkat cells, Q15116. Description: cell-based or functional assay.
Assay [2] deals with CTLA-4 on PATHHUNTER CTLA4 Jurkat cells, P16410. Description: cell-based or functional assay.

From patent publication US20210275669A1 come the findings set out here.

Chain of CTLA-4 on PATHHUNTER CTLA4 Jurkat cells, P16410 (P16410 36-223 limits assumed): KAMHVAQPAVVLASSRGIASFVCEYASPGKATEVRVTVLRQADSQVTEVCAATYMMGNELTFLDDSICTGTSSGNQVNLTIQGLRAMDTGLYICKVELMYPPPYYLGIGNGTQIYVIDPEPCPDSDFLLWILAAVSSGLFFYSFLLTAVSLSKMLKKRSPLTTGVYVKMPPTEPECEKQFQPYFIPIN
Chain of PD-1 on PATHHUNTER PD-1 Jurkat cells, Q15116 (Q15116 25-288 limits assumed): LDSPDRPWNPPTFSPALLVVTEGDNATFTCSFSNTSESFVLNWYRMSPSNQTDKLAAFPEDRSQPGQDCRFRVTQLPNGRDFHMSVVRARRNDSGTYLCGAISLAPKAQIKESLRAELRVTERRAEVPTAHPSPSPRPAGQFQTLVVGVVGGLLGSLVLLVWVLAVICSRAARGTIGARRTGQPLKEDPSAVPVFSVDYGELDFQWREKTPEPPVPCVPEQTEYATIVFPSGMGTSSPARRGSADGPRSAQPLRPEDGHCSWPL

As for CRRTSTGQISTLRVNITAPLSQ (modifications not checked) [peptide LD01], in assay [1], the % inhibition (PATHHUNTER PD-1 assay; 100 µM; Study 1) was 50.5%, the % inhibition (PATHHUNTER PD-1 assay; 100 µM; Study 2) was 79%, the % inhibition (PATHHUNTER PD-1 assay; 100 µM; Study 4) came to 65% and the % inhibition (PATHHUNTER PD-1 assay; 100 µM; Study 5) was 24%. The % inhibition (PATHHUNTER PD-1 assay; 100 µM; Study 6) in assay [1] stood at 83%. In assay [2], this molecule showed a % inhibition (PATHHUNTER CTLA4 assay; 100 µM; Study 2) of 51%, a % inhibition (PATHHUNTER CTLA4 assay; 100 µM; Study 4) of 16% and a % inhibition (PATHHUNTER CTLA4 assay; 100 µM; Study 6) of 46%.
